Reference: the supplement of paper PMC10724198
± gives the standard deviation of the averaged measurements.

System: Saccharomyces cerevisiae
Assay: protein stability index of tFT-peptide fusion (C-terminal peptide) (PSI (0-1 scale)); higher = more stable (slower turnover)
Conditions: temperature: 30 C
Experimental: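 MPS profiling in S. cerevisiae of the yeast C-terminome library: the last 12 aa of each annotated ORF are fused to the C-terminus of a sfGFP-mCherry timer, after a GGGS linker. Cells are FACS-sorted into 8 mCherry/sfGFP bins and deep-sequenced. PSI runs from 0 (unstable) to 1 (stable); wild type and das1Δ backgrounds, two technical replicates each.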

[1] = genetic background: das1 deletion

Sequence | protein stability index [1] | protein stability index (genetic background: wild type)
LKKPRSGFHVIV [YFR006W C-terminal 12 aa] | 0.69 ± 0.027 | 0.6371 ± 0.0052
TIYDGEAVAKYI [PRE5 C-terminal 12 aa] | 0.6775 ± 0.0025 | 0.7 ± 0.046
IFQSAISKAIRG [YBR109W-A C-terminal 12 aa] | 0.6726 ± 0.0032 | 0.682 ± 0.0053
ATTDQEGDIHLE [PRE10 C-terminal 12 aa] | 0.689 ± 0.026 | 0.678 ± 0.038
SKNTREEKPTEL [MMM1 C-terminal 12 aa] | 0.698 ± 0.011 | 0.688 ± 0.018
LDNIERDANDLS [LAM4 C-terminal 12 aa] | 0.695 ± 0.0073 | 0.678 ± 0.008
GPYWKRVVAFWC [AGP1 C-terminal 12 aa] | 0.734 ± 0.017 | 0.549 ± 0.011
PTPPTPPTPPQQ [ECM19 C-terminal 12 aa] | 0.701 ± 0.014 | 0.687 ± 0.027
GAAVRLTGSDRV [RPN7 C-terminal 12 aa] | 0.685 ± 0.007 | 0.679 ± 0.035
RYNDERLGPVQG [IRC24 C-terminal 12 aa] | 0.696 ± 0.021 | 0.684 ± 0.043
NASYTKKYVPHP [YPR059C C-terminal 12 aa] | 0.682 ± 0.0097 | 0.703 ± 0.063
SFDDGRVKRQRT [IOC3 C-terminal 12 aa] | 0.69 ± 0.014 | 0.715 ± 0.075
VPLIIDSSGSAN [FTH1 C-terminal 12 aa] | 0.718 ± 0.011 | 0.68 ± 0.0077
QNNSQGFLREII [TDA7 C-terminal 12 aa] | 0.6961 ± 0.004 | 0.6925 ± 0.0034
FVAKEIADDSKK [TIM12 C-terminal 12 aa] | 0.684 ± 0.016 | 0.709 ± 0.03
FSDFLDSNRITQ [LDB19 C-terminal 12 aa] | 0.72756 ± 0.00057 | 0.723 ± 0.017
IQKLEEARNPQF [UPS1 C-terminal 12 aa] | 0.704 ± 0.046 | 0.718 ± 0.034
LCSIYKALLLGP [ATF1 C-terminal 12 aa] | 0.6813 ± 0.0019 | 0.67 ± 0.0087
PEDCKDDKYFVN [LCB2 C-terminal 12 aa] | 0.6832 ± 0.0068 | 0.685 ± 0.04
RTKGQKWFDGLM [NAT2 C-terminal 12 aa] | 0.6819 ± 0.0031 | 0.698 ± 0.016
IYRRRKNKIFFW [RCK1 C-terminal 12 aa] | 0.705 ± 0.012 | 0.692 ± 0.045

Sequence | protein stability index [1] | protein stability index (genetic background: wild type)
WRKFGINSYSYS [DIA2 C-terminal 12 aa] | 0.734 ± 0.016 | 0.759 ± 0.075
RMIEYLEEYQAW [FRE4 C-terminal 12 aa] | 0.706 ± 0.0073 | 0.72 ± 0.011
LREMMNKDFAGL [PSD2 C-terminal 12 aa] | 0.708 ± 0.02 | 0.698 ± 0.0081
LRSKGKRYDTRS [YJR018W C-terminal 12 aa] | 0.7035 ± 0.0016 | 0.708 ± 0.024
LSQLVKKKPRRH [HIF1 C-terminal 12 aa] | 0.6885 ± 0.0039 | 0.729 ± 0.073
GYKDRFGNLNVM [ATP7 C-terminal 12 aa] | 0.7037 ± 0.0041 | 0.687 ± 0.02
NTSRIAKFFNRR [SEC15 C-terminal 12 aa] | 0.702 ± 0.031 | 0.70527 ± 7.1e-05
IGGLLKPSELDD [CRM1 C-terminal 12 aa] | 0.726 ± 0.032 | 0.696 ± 0.033
ELPAQKSTVISE [GEP7 C-terminal 12 aa] | 0.733 ± 0.039 | 0.702 ± 0.039
LELVLKNKEMEN [RSA3 C-terminal 12 aa] | 0.684 ± 0.016 | 0.706 ± 0.092
YFNLFTDLSGSK [NEL1 C-terminal 12 aa] | 0.73 ± 0.012 | 0.72 ± 0.043
LNSIDPALISKY [AFT2 C-terminal 12 aa] | 0.744 ± 0.035 | 0.741 ± 0.036
VLIVLLVLAFIA [TLG1 C-terminal 12 aa] | 0.284 ± 0.013 | 0.286 ± 0.0034
ELLQSFSLVLTL [YKL153W C-terminal 12 aa] | 0.64297 ± 0.00021 | 0.632 ± 0.024
VVGEDEKDDFFE [EFG1 C-terminal 12 aa] | 0.721 ± 0.024 | 0.691 ± 0.026
FSALVLRGVRGE [YBR196C-B C-terminal 12 aa] | 0.698 ± 0.014 | 0.6769 ± 0.0067
SANGYKRRRYGN [YHC1 C-terminal 12 aa] | 0.716 ± 0.019 | 0.732 ± 0.055
DDNEPDEEANRA [RXT2 C-terminal 12 aa] | 0.672 ± 0.012 | 0.6656 ± 0.0043
TFLYYYFPLPTN [YPL080C C-terminal 12 aa] | 0.656 ± 0.029 | 0.69 ± 0.028
DSQHKHDYSHSG [DCK1 C-terminal 12 aa] | 0.6787 ± 0.0061 | 0.715 ± 0.035
YTTVLSSQSSKL [PEX8 C-terminal 12 aa] | 0.783 ± 0.013 | 0.855 ± 0.091

Sequence | protein stability index [1] | protein stability index (genetic background: wild type)
FGNDMVINFETD [UTP22 C-terminal 12 aa] | 0.7438 ± 0.0026 | 0.731 ± 0.12
GPSDDDEEDDKK [YGL242C C-terminal 12 aa] | 0.643 ± 0.043 | 0.675 ± 0.07
KQLGSSHNYTVN [SKG6 C-terminal 12 aa] | 0.695 ± 0.019 | 0.696 ± 0.0079
FLSMTYASLVNK [YLR294C C-terminal 12 aa] | 0.713 ± 0.022 | 0.706 ± 0.062
LAYPACLACQAS [VPS69 C-terminal 12 aa] | 0.6 ± 0.02 | 0.59 ± 0.011
ARTSDELQFTLP [MPT5 C-terminal 12 aa] | 0.7165 ± 0.0027 | 0.6868 ± 0.0057
VERNHPVITNIS [YCR087W C-terminal 12 aa] | 0.7114 ± 0.0043 | 0.733 ± 0.062
FINKIYHQKVNL [TMN3 C-terminal 12 aa] | 0.707 ± 0.0078 | 0.781 ± 0.004
LIRKMYYKNLKK [SSL2 C-terminal 12 aa] | 0.693 ± 0.05 | 0.757 ± 0.028
SSKAIQGNFDDL [SPB4 C-terminal 12 aa] | 0.704 ± 0.018 | 0.714 ± 0.047
IGDFFKNLNMAK [NUP159 C-terminal 12 aa] | 0.715 ± 0.026 | 0.743 ± 0.054
PFKERAVFLLVL [YDR524W-C C-terminal 12 aa] | 0.523 ± 0.016 | 0.361 ± 0.0078
GYQRGLDEFNKY [MRX18 C-terminal 12 aa] | 0.7148 ± 0.0013 | 0.681 ± 0.04
RIRQEIIKTKLL [EMP47 C-terminal 12 aa] | 0.67995 ± 0.00042 | 0.234 ± 0.032
CKQWEISNMLKK [CSI1 C-terminal 12 aa] | 0.738 ± 0.023 | 0.664 ± 0.04
VDHLTDPDIYIP [BUB2 C-terminal 12 aa] | 0.7 ± 0.017 | 0.7129 ± 0.0042
SDISDLDDLGFL [RPN3 C-terminal 12 aa] | 0.7213 ± 0.0065 | 0.679 ± 0.028
LMGAALAAVMLL [FIT3 C-terminal 12 aa] | 0.6841 ± 0.0054 | 0.6409 ± 0.0026
CTSLLKGERKKE [RRT8 C-terminal 12 aa] | 0.6656 ± 0.00077 | 0.685 ± 0.012
